Columns and labels:
Human serum albumin [1] = molecular target: Human serum albumin (human); assay: ELISA on coated recombinant albumin, pH 7.4, anti-human IgG1 HRP; apparent affinity
Rat serum albumin [2] = molecular target: T1, Rat serum albumin (rat); assay: as above
T1 chain: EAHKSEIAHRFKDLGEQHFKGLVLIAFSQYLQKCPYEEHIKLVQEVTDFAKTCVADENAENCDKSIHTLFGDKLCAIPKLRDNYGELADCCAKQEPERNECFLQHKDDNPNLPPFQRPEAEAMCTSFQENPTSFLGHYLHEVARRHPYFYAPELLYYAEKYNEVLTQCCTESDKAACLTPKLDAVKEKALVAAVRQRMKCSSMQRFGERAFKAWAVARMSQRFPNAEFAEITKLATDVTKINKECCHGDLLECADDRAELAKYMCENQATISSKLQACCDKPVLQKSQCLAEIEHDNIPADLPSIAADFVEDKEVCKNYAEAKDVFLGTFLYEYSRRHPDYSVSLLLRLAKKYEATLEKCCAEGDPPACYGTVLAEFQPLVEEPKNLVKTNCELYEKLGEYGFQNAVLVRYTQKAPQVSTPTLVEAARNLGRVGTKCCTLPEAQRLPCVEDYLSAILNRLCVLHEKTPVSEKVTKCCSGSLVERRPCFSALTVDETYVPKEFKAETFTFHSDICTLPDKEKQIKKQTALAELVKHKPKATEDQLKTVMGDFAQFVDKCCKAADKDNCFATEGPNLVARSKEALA

Murine serum albumin [3] = molecular target: Murine serum albumin (mouse); assay: as above
Chain of Murine serum albumin (mouse) (chain, as listed by the source): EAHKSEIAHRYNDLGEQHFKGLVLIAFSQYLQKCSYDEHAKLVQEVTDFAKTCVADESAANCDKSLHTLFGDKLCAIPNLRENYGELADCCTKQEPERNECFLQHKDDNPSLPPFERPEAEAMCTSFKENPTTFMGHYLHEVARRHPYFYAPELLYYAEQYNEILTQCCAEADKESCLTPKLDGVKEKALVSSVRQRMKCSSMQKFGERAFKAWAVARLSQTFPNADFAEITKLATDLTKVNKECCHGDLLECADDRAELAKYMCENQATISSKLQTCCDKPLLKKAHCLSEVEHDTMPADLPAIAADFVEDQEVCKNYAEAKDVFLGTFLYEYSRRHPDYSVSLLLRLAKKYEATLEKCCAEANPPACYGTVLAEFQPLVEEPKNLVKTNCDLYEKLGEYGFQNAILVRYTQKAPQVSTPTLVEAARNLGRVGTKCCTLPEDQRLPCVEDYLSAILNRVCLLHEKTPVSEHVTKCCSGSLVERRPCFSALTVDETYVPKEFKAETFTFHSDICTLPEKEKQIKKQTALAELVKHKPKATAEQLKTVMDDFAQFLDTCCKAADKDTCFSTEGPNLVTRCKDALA

[4] = molecular target: T2, Cynomolgus monkey serum albumin (cynomolgus monkey); assay: as above
T2 chain: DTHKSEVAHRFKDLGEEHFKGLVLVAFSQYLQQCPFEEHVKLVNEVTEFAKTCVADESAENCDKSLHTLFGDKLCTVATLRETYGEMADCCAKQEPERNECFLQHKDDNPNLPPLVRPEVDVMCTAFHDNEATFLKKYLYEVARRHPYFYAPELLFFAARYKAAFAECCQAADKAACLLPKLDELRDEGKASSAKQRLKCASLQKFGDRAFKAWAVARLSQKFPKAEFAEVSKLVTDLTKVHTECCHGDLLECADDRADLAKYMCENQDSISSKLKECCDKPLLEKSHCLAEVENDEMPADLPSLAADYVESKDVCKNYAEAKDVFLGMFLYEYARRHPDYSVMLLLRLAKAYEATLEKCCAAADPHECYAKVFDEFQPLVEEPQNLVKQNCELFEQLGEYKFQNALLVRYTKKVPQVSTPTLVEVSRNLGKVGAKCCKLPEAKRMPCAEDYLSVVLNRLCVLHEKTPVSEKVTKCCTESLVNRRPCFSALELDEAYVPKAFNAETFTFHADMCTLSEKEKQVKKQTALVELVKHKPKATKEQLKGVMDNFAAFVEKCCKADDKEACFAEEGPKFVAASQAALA

Human serum albumin [5] = molecular target: Human serum albumin (human); assay: ELISA, albumin coated, monomeric sdAb titrated
Rat serum albumin [6] = molecular target: T1, Rat serum albumin; assay: ELISA, albumin coated, monomeric sdAb titrated
Murine serum albumin [7] = molecular target: Murine serum albumin (mouse); assay: ELISA, albumin coated, monomeric sdAb titrated
[8] = molecular target: T2, Cynomolgus monkey serum albumin; assay: ELISA, albumin coated, monomeric sdAb titrated
IL-4R = molecular target: T3, IL-4R (UniProt P24394 26-232, limits assumed); assay: ELISA on coated IL-4R
T3 construct: also called second target
Description: The plates were washed 3× times in 0.05% PBST (150 μL/well) and then blocked with Casein in 0.05% PBST (200 μL/well) for 2 hours at RT. The plates were washed 3× times in 0.05% PBST, and 100 μL of titrated test articles in 0.05% PBST were added to the wells of the plate (starting 100 nM, 1:3 dilutions, 11-point titration) and incubated at 4° C. for 1 hour. […] Plates were then washed again before addition of TMB substrate (100 μL/well) that was allowed to reach RT before addition to the plate. The HRP-TMB reaction was allowed to develop for approximately 10 minutes, then TMB stop buffer was added (100 μL/well) and the absorbance was measured at 450 nm on a plate reader with absorbance at 650 nm subtracted (Molecular Devices). The data were plotted and analyzed using GraphPad Prism analysis software.

B1: cx5009, hz4A01v51 VHH-hIgG1-xELL-NNT-Fc (VHH)
VHH: EVQLVESGGGEVQPGGSLRLSCAASGFTFSTSGMVWVRQAPGKGLEWVSTISDDARITVYAESVKGRFTISRDNAKNTVYLQMNSLRAEDTAVYYCATYRAGSRIGSYEDYYRGQGTLVTVKP
notes: also called Hz4A01v51-NNT-hFc; 4A01v51-NNT-hFc
Kd (Human serum albumin [1]): ~200 pM | Kd (Rat serum albumin [2]): ~200 pM | Kd (Murine serum albumin [3]): ~200 pM | Kd [4]: ~200 pM | Kd (Human serum albumin [5]): < 300 pM | maximal binding (Human serum albumin [5]): > 90% | Kd (Rat serum albumin [6]): < 300 pM | maximal binding (Rat serum albumin [6]): > 90% | Kd (Murine serum albumin [7]): < 300 pM | maximal binding (Murine serum albumin [7]): > 90% | Kd [8]: < 300 pM | maximal binding [8]: > 90%

B2: cx12584 (VHH)
chain: GGGGDKTHTCPPCPAPGGPSVFLFPPKPKDTLMISRTPEVTCVVVDVSHEDPEVKFNWYVDGVEVHNAKTKPREEQYNSTYRVVSVLTVLHQDWLNGKEYKCKVSNKALPAPIEKTISKAKGQPREPQVYTLPPSRDELTKNQVSLTCLVKGFYPSDIAVEWESNGQPENNYKTTPPVLDSDGSFFLYSKLTVDKSRWQQGNVFSCSVMHEALHNHYTQKSLSLSPGGGSGGGSGGGSEVQLVESGGGEVQPGGSLRLSCAASGFTFSTSGMVWVRQAPGKGLEWVSTISDDARITVYAESVKGRFTISRDNAKNTVYLQMNSLRAEDTAVYYCATYRAGSRIGSYEDYYRGQGTLVTVKP
notes: Homodimer; also called Fc Region-GS12-VHH
binding result (IL-4R): no binding (tested: 100 nM (top of titration))

B3: cx12583 (VHH)
chain: GGGGDKTHTCPPCPAPGGPSVFLFPPKPKDTLMISRTPEVTCVVVDVSHEDPEVKFNWYVDGVEVHNAKTKPREEQYNSTYRVVSVLTVLHQDWLNGKEYKCKVSNKALPAPIEKTISKAKGQPREPQVYTLPPSRDELTKNQVSLTCLVKGFYPSDIAVEWESNGQPENNYKTTPPVLDSDGSFFLYSKLTVDKSRWQQGNVFSCSVMHEALHNHYTQKSLSLSPGSGGGSEVQLVESGGGEVQPGGSLRLSCAASGFTFSTSGMVWVRQAPGKGLEWVSTISDDARITVYAESVKGRFTISRDNAKNTVYLQMNSLRAEDTAVYYCATYRAGSRIGSYEDYYRGQGTLVTVKP
notes: Homodimer; also called Fc Region-GS6-VHH
binding result (IL-4R): no binding (tested: 100 nM (top of titration))

From patent US20250277018A1 (INHIBRX BIOSCIENCES, published 2025)
